Measured values taken from paper PMC11604724 (MedComm, 2024).

B1: mAb 26434 (antibody, V domains shown)
VH: QVQLQQSGAEVKKPGASVKVSCKASGYTFSRYGISWVRQAPGQGLEWMGWISAYKGNTNYAQKFQGRVTMTTDTSTSTAYMELRSLRSDDTAVYYCARSPPDFLGWFDPWGQGTLVTVSS
VL: LPVLTQPPSVSVSPGQTASITCSGDKLGDKFTCWYQQKPGQSPVQVIYQDTHRPSGIPERFSGSNSGNTATLTISGTQAVDEADYYCQAWDSSTVIFGGGTKLTVL
B2: mAb 3711 (antibody, V domains shown)
VH: EVQLVESGGGLVKPGRSLRLSCAASGFTFSDYYMSWIRQAPGKGLEWVSYISSSGSTIYYADSVRGRFTISRDNAKNSLYLQMNTLRAEDTAVYYCARGGWELRSLAGGYYGMDVWGQGTTVTVSS
VL: DIVMTQTPFTLSASVGDRVTITCRASQGIRNDLGWYQQKPGKAPKCLIYAASSLLSGVPSRFSGSGSGTEFTLTISSLQPEDFATYYCLQHNSYPWTFGQGTKLEIK

What was measured:
[1] = target: SARS‐CoV‐2 WT spike trimer protein (SARS-CoV-2, UniProt P0DTC2); experiment: BLI; details: both partners purified
[2] = target: extracellular domain of SARS‐CoV‐2 (WT) spike (S‐ECD) for cryo-EM (SARS-CoV-2 WT, proline mutation at residue 986 | proline mutation at residue 987, N-linked glycans (Asn17, Asn122, Asn165 and others)); experiment: cryo-EM structure; details: both partners purified

Binder	Kd [1] [nM]	stoichiometry N [2] [Fabs per spike trimer]
B1	670	–
B2	–	3
